The subject of test [1] is mouse dorsal root ganglia neurons. The test can be described thus: Growth of dorsal root ganglia neurons in hydrogels with nerve growth factor. It is filed as cell-based. Conditions: 40 ng/mL NGF; nine days. As for the experimental part: (§1) Shown are cell counts for each dose of drug following 48 hours of treatment. Cells were counted using CellTiter-Glo assay performed on intact gels. […] Both cultures were grown in hydrogel culture for nine days with 40 ng/mL nerve growth factor.
Mouse dorsal root ganglia were collected and either dissociated into single cells (FIG. 22A) or kept intact (FIG. 22B), and seeded into hydrogels containing no growth factors aside from 40 ng/mL nerve growth factor (NGF). They were cultured in 50% DMEM, 50% F12 growth media supplemented with 10% heat-inactivated fetal bovine serum and 40 ng/mL NGF. The cultures were grown for nine days, at which point they were fixed and stained for the expression of the sodium channel NaV1.7 (a marker of nociceptive neurons) and the DNA dye DAPI.

The test system of test [2] is breast cancer samples cultured in 3D culture. The test can be described thus: Tamoxifen sensitivity of breast cancer samples in 3D culture (CellTiter-Glo on intact gels). In kind it is cell-based, human. The following applies: 48 hours of treatment; ER-positive cancer cells. As for the experimental part:
as §1
(In general: Cellular ATP, detected with luciferase, serves as a proxy for viable cell number.)

Test [3] deals with breast tissues cultured in hydrogel scaffolds. The test can be described thus: Morphological response to hormones of breast tissues cultured in hydrogel scaffolds. It is filed as cell-based, human. An excerpt:
FIG. 1A is a schematic representation of hydrogel assembly. FIG. 1B depicts representative bright-field images of tissue growth after ten days in Matrigel, polymerized collagen or the presently disclosed three-dimensional hydrogels (e.g., in the absence of BPE), alongside carmine stained mammary tissue sections from independent reduction mammoplasty patients. […] FIG. 1E depicts schematic and representative images showing the effect of pituitary hormones (0.4% bovine pituitary extract [BPE]) and 1 μg/mL recombinant human prolactin administration on the development of tissue structures grown in the presently disclosed three-dimensional hydrogels. BPE was added at seeding (D0) and prolactin at two weeks (N=4, 7 and 14, 1 resp). Bottom left images show representative architecture prior to the administration of prolactin. […] Error bars represent SEM.
Distance of the section from the surface of the structure is indicated. Scale bars are 200 μm.
We next assessed if breast tissues cultured in hydrogel scaffolds respond to steroid, pituitary, or lactogenic hormones, which are known to stimulate the development of mammary epithelial tissue in vivo.

The values below come from patent US20170267970A1, “Three-Dimensional Hydrogels that Support Growth of Physiologically Relevant Tissue and Methods of Use Thereof” (Whitehead Institute for Biomedical Research, priority 2016, published 2017).

Entries after “also recorded” stand apart in the source; their conditions may differ.

Regarding “nerve growth factor: nerve growth factor, 40 ng/mL in hydrogel and medium”, the “neuron survival and growth of axons and dendrites” value in test [1] is “survive and grow new axons and dendrites”.
Take `CC/C(=C(\c1ccccc1)c1ccc(OCCN(C)C)cc1)c1ccccc1` [tamoxifen]: the “sensitivity / responsiveness to tamoxifen (cell counts)” value in test [2] is recorded as “consistently responsive; also recorded: exhibit sensitivity”.

B1: prolactin: lactogenic hormone; 1 μg/mL recombinant human prolactin (protein, UniProt P01236 29-227, looked up)
Prolactin: LPICPGGAARCQVTLRDLFDRAVVLSHYIHNLSSEMFSEFDKRYTHGRGFITKAINSCHTSSLATPEDKEQAQQMNQKDFLSLIVSILRSWNEPLYHLVTEVRGMQEAPEAILSKAVEIEEQTKRLLEGMELIVSQVHPETKENEIYPVWSGLPSLQMADEESRLSAYYNLLHCLRRDSHKIDNYLKLLKCRIIHNNNC
Turning to B1, the “increase in lobular volume” value in test [3] (1 μg/mL recombinant human prolactin added at two weeks, day 21) amounted to 4 fold. In addition, in test [3] (prolactin 1 μg/mL), the “lipid droplets / lipid content (H&E, oil red O staining)” value was “formation of large lipid droplets; also recorded: lipid rich; also recorded: Lipid droplets can be seen”. For the same molecule, the “formation of milk-like opaque substance in lumens” value in test [3] (prolactin after 2 weeks of estrogen and progesterone) is given as “promotes the formation of an opaque substance that fills the luminal space of the structures”.
